What is called Kd is the equilibrium constant for the complex coming apart. Low values mean higher affinity, high ones lower affinity.

From article PMC11086168, “Combining the Benefits of Biotin–Streptavidin Aptamer Immobilization with the Versatility of Ni-NTA Regeneration Strategies for SPR” come the findings set out here.

Data set [1] deals with T1, 6xHis-streptavidin (His-SA) (UniProt P22629 25-183). In words: EMSA; no biotin; 1 µM 29mer; LSPR on Ni-NTA chip with His-SA capture; sample buffer PBS-T (1X PBS, 0.05% Tween 20); immobilization in PBS-T or PBS-I (1X PBS, 300 mM NaCl total, pH 8.0); 20. Conditions: protein: commercial; tags: 6xHis; chain copies: 4.
T1 sequence (P22629 25-183): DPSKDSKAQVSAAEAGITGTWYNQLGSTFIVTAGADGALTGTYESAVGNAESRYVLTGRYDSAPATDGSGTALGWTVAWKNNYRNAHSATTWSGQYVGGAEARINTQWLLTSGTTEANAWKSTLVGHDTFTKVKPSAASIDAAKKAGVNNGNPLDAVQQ
The target of data set [2] is T1, 6xHis-streptavidin (His-SA). In words: EMSA; binding through 5' biotin; LSPR on Ni-NTA chip with His-SA capture; sample buffer PBS-T (1X PBS, 0.05% Tween 20); immobilization in PBS-T or PBS-I (1X PBS, 300 mM NaCl total, pH 8.0); 20. The following applies: protein: commercial; tags: 6xHis; chain copies: 4; label: 5' biotin. A general note: A gel shift assay detects complexes by their altered migration in electrophoresis.

In data set [3] the target is T2, thrombin (human plasma, UniProt P00734;P00734 328-363;364-622). In words: SPR (LSPR); Experiment 1; PBS-T; printed as KA from Hill fit (half-saturation, in nM); aptamer immobilized on His-SA/Ni-NTA; BSA present; LSPR on Ni-NTA chip with His-SA capture; sample buffer PBS-T (1X PBS, 0.05% Tween 20); immobilization in PBS-T or PBS-I (1X PBS, 300 mM NaCl total, pH 8.0); 20.

Data set [4] deals with T2, thrombin. In words: SPR (LSPR); Experiment 8; reused surface of Experiment 7, no new immobilization; printed as KA from Hill fit; BSA present; LSPR on Ni-NTA chip with His-SA capture; sample buffer PBS-T (1X PBS, 0.05% Tween 20); immobilization in PBS-T or PBS-I (1X PBS, 300 mM NaCl total, pH 8.0); 20.
Data set [5] addresses T2, thrombin. In words: SPR (LSPR); Experiment 7; surface immobilized in PBS-I; printed as KA from Hill fit; BSA present; LSPR on Ni-NTA chip with His-SA capture; sample buffer PBS-T (1X PBS, 0.05% Tween 20); immobilization in PBS-T or PBS-I (1X PBS, 300 mM NaCl total, pH 8.0); 20.

Take AGTCCGTGGTAGGGCAGGTTGGGGTGACT (structured_DNA) [unlabeled 29mer]: the binding result in data set [1] is “no binding”.

As for AGTCCGTGGTAGGGCAGGTTGGGGTGACT (structured_DNA, 5' biotin (5Biosg)) [B-29mer (biotinylated thrombin-binding aptamer)], the binding result in data set [2] is on record as “binds”. Besides, the Kd with thrombin [3] amounted to 31.2 nM; with thrombin [4], 10.3 nM; in the data set with thrombin [5], 18.6 nM.
